In US20090081197A1, “Methods for Selection of Melanocortin Receptor-Specific Agents for Treatment of Obesity” (Palatin Technologies, Inc., priority 2007, published 2009):

How the values were obtained:
[1] = target: MC1-R of B-16 mouse melanoma cells (mouse) (UniProt Q01727); assay: radioligand competition, [I125]-NDP-α-MSH, B-16 membranes
[2] = target: human melanocortin 4 receptor (human) (UniProt P32245); assay: cell-based or functional assay
[3] = target: human melanocortin 3 receptor (human) (UniProt P41968); assay: radioligand competition, [I125]-NDP-α-MSH, hMC3-R membranes
Chain of human melanocortin 3 receptor (human) (P41968 whole entry): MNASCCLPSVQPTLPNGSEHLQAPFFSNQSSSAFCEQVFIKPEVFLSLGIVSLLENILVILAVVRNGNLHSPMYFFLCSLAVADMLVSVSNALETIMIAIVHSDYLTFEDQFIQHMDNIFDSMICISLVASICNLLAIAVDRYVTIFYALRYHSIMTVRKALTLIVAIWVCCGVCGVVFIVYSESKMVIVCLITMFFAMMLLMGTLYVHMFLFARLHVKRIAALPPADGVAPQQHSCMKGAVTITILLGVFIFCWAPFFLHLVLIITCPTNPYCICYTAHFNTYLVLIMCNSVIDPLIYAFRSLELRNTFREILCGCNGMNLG

[4] = target: human melanocortin 3 receptor (human) (UniProt P41968); assay: radioligand competition, [I125]-NDP-α-MSH, hMC3-R membranes, 1 µM compound
human MC1-R (human) = human MC1-R (human) (UniProt Q01726); assay: radioligand competition, NDP-α-MSH, human MC1-R, normal system
Chain of human MC1-R (human) (Q01726 whole entry): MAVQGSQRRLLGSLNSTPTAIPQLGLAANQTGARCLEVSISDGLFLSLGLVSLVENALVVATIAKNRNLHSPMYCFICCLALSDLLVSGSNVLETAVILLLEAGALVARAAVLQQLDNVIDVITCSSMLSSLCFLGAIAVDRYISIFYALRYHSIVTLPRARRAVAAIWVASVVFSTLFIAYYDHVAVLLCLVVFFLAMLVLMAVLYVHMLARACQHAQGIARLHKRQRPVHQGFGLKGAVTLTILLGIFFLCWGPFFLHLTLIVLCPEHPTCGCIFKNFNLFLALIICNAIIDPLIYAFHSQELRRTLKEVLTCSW

[5] = target: human melanocortin 5 receptor (human) (UniProt P33032); assay: radioligand competition, [I125]-NDP-α-MSH, hMC5-R membranes, 1 µM compound
Chain of human melanocortin 5 receptor (human) (P33032 whole entry): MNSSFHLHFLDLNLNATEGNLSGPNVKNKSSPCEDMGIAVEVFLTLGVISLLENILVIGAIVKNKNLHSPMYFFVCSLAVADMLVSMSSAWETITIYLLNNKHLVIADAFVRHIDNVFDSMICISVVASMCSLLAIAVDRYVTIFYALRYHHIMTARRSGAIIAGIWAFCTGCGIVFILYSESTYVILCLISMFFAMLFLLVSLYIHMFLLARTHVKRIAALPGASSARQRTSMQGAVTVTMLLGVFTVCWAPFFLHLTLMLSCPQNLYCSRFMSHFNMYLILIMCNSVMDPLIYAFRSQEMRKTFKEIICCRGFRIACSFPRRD

[6] = target: MC1-R of B-16 mouse melanoma cells (mouse) (UniProt Q01727); assay: radioligand competition, [I125]-NDP-α-MSH, B-16 membranes, 1 µM compound
[7] = target: human melanocortin 4 receptor (human) (UniProt P32245); assay: radioligand competition, [I125]-NDP-α-MSH, hMC4-R membranes
[8] = target: human melanocortin 4 receptor (human) (UniProt P32245); assay: radioligand competition, [I125]-NDP-α-MSH, hMC4-R membranes, 1 µM compound
[9] = target: human melanocortin 5 receptor (human) (UniProt P33032); assay: radioligand competition, [I125]-NDP-α-MSH, hMC5-R membranes

Chain of human melanocortin 4 receptor (human) (P32245 whole entry): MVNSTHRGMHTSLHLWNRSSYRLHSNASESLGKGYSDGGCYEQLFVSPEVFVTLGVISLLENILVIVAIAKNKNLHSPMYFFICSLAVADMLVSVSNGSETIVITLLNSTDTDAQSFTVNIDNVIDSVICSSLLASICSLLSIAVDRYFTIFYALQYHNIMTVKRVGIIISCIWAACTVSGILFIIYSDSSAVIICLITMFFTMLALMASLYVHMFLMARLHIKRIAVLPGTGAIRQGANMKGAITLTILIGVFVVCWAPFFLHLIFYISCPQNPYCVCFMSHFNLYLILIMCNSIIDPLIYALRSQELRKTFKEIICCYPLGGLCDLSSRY
Chain of MC1-R of B-16 mouse melanoma cells (mouse) (Q01727 whole entry): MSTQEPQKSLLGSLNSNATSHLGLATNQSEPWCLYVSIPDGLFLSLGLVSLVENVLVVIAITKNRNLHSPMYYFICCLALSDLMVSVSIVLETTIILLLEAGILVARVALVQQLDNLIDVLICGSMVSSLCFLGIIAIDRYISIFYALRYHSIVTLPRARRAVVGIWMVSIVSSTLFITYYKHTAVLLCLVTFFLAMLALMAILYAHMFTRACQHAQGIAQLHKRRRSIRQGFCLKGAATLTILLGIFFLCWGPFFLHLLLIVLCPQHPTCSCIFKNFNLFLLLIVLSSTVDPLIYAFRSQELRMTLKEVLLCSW

B1: Ac-Nle-cyclo(Asp-His-D-Nal 2-Arg-Nal 2-Lys)-OH (peptide)
peptide: XDHXRXK
modifications: N-terminal acetyl; Nle at 1 (X); D-Nal 2 at 4 (X); Nal 2 at 6 (X); cyclo(Asp 2 to Lys 7); free C-terminal acid
[1]
  Ki: 0.2 nM
[2]
  pA2 (antagonism of NDP-α-MSH-stimulated cAMP, Schild analysis), normal system: 8.1
[3]
  Ki: 0.3 nM
[4]
  Inhibition at 1 µM (NDP-α-MSH): 98%
Human MC1-R (human)
  Ki: 0.25 nM
[5]
  Inhibition at 1 µM (NDP-α-MSH): 100%
[6]
  Inhibition at 1 µM (NDP-α-MSH): 102%
[7]
  Ki: 0.02 nM
[8]
  Inhibition at 1 µM (NDP-α-MSH): 100%
[9]
  Ki: 0.2 nM
